Reference: PMC11878764, “MaEIL4-MaMADS36-MaACS7 module transcriptionally regulates ethylene biosynthesis during banana fruit ripening”

Target: MaMADS36 (Musa spp. (banana), UniProt A0ACE1XRG1 54-288)
Assay: EMSA; Not given in material; EMSA according to Liu et al. [22]
Conditions: protein: recombinant; chain copies: 2

MaMADS36, sequence (A0ACE1XRG1 entry or part of it): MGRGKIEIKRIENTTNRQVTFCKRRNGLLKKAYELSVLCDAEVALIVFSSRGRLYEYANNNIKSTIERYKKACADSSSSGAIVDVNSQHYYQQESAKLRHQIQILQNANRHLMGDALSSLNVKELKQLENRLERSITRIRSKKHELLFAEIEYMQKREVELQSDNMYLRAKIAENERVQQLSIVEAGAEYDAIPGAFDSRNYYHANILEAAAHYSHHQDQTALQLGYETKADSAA

B1: MaACS7 promoter C(A/T)rG probe (dsDNA)
DNA 1: GTTTCTTTTTTGGT
DNA 2: ACCAAAAAAGAAAC
B1: binds.
